Measured values taken from patent US20240287484.

Key:
Conditions in all cases: qPCR; 3 mM MgCl2, 37 C
[1] = tested on: T1, MG153-43 RT (uncultivated organism (metagenomic))
T1 sequence: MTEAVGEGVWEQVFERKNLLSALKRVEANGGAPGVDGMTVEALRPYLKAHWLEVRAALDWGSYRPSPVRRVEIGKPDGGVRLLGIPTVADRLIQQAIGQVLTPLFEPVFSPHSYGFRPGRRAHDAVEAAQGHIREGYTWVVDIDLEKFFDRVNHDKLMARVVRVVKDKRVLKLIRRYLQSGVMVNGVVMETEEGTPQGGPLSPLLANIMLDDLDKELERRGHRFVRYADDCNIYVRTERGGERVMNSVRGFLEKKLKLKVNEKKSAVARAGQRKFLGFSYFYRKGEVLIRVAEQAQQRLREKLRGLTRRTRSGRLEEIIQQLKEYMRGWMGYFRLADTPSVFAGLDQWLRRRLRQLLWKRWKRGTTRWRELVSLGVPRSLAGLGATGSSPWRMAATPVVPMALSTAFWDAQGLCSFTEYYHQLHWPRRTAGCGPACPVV

[2] = tested on: T2, MG153-28 RT (uncultivated organism (metagenomic))
T2 sequence: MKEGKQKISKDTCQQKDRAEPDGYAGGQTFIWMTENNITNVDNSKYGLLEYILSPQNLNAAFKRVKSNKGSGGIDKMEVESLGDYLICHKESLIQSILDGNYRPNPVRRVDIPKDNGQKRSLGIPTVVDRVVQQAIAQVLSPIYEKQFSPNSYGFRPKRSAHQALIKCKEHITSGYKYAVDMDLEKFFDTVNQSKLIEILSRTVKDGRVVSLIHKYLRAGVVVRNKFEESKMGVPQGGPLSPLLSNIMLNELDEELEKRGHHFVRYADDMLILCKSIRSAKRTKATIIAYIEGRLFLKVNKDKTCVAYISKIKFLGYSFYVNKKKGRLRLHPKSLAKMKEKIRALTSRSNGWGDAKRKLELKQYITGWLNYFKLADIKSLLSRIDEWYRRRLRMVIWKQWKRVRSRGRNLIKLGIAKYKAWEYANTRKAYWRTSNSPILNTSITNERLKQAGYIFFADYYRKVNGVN

[3] = tested on: T3, MG153-55 RT (uncultivated organism (metagenomic))
T3 sequence: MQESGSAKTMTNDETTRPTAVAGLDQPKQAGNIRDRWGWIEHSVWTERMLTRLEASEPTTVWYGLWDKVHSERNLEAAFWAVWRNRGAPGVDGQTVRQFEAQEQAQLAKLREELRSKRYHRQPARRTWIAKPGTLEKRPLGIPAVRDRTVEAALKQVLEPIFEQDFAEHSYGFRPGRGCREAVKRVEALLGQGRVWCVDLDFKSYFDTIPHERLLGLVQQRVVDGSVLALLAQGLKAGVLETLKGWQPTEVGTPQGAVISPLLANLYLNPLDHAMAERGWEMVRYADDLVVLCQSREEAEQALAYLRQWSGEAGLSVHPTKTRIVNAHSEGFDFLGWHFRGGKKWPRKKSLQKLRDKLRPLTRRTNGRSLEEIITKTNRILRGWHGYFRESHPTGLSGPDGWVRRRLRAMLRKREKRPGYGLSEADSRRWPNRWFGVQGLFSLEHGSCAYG

[4] = tested on: T4, MG153-26 RT (uncultivated organism (metagenomic))
T4 sequence: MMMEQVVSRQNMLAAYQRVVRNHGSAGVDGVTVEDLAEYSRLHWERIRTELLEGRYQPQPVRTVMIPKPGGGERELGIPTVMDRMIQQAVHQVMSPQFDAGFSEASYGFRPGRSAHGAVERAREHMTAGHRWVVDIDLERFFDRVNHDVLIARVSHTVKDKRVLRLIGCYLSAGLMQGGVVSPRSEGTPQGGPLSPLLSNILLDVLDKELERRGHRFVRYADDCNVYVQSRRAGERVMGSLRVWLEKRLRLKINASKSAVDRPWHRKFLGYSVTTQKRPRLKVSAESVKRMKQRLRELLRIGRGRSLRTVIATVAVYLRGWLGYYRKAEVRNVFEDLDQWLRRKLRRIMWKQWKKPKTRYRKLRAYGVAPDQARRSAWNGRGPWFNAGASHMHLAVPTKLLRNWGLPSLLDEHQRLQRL

Measured: activity (fold over background)

200 nt RNA template annealed to DNA primer
> 10: [1] | [2] | [3] | [4]
